# Experimental data from patent US20070275900.
# B1: purified CD26 (dipeptidyl-peptidase IV, EC 3.4.14.5) (protein)
# chain: MKTPWKVLLGLLGAAALVTIITVPVVLLNKGTDDATADSRKTYTLTDYLKNTYRLKLYSLRWISDHEYLYKQENNILVFNAEYGNSSVFLENSTFDEFGHSINDYSISPDGQFILLEYNYVKQWRHSYTASYDIYDLNKRQLITEERIPNNTQWVTWSPVGHKLAYVWNNDIYVKIEPNLPSYRITWTGKEDIIYNGITDWVYEEEVFSAYSALWWSPNGTFLAYAQFNDTEVPLIEYSFYSDESLQYPKTVRVPYPKAGAVNPTVKFFVVNTDSLSSVTNATSIQITAPASMLIGDHYLCDVTWATQERISLQWLRRIQNYSVMDICDYDESSGRWNCLVARQHIEMSTTGWVGRFRPSEPHFTLDGNSFYKIISNEEGYRHICYFQIDKKDCTFITKGTWEVIGIEALTSDYLYYISNEYKGMPGGRNLYKIQLSDYTKVTCLSCELNPERCQYYSVSFSKEAKYYQLRCSGPGLPLYTLHSSVNDKGLRVLEDNSALDKMLQNVQMPSKKLDFIILNETKFWYQMILPPHFDKSKKYPLLLDVYAGPCSQKADTVFRLNWATYLASTENIIVASFDGRGSGYQGDKIMHAINRRLGTFEVEDQIEAARQFSKMGFVDNKRIAIWGWSYGGYVTSMVLGSGSGVFKCGIAVAPVSRWEYYDSVYTERYMGLPTPEDNLDHYRNSTVMSRAENFKQVEYLLIHGTADDNVHFQQSAQISKALVDVGVDFQAMWYTDEDHGIASSTAHQHIYTHMSHFIKQCFSLP
# Tests used:
# H-Val-Pro-NAP-TSAO = target: T1, H-Val-Pro-NAP-TSAO
# T1 chain: VP
# H-Gly-3.4Hypro-NAP-TSAO = target: T2, H-Gly-3.4Hypro-NAP-TSAO
# T2 chain: GP
# Val-Pro-PI 1 = target: T3, Val-Pro-PI 1
# T3 chain: VP
# H-Gly-Pro-NAP-TSAO = target: T4, H-Gly-Pro-NAP-TSAO
# T4 chain: GP
# H-Val-Leu-NAP-TSAO = target: T5, H-Val-Leu-NAP-TSAO
# T5 chain: VL
# H-Val-Pro-Val-NAP-TSAO = target: T6, H-Val-Pro-Val-NAP-TSAO
# T6 chain: VPV
# H-Val-Ala-NAP-TSAO = target: T7, H-Val-Ala-NAP-TSAO
# T7 chain: VA
# Fmoc-Val-Pro-Doxorubicin = target: T8, Fmoc-Val-Pro-Doxorubicin
# T8 chain: VP
# H-Tyr-Pro-NAP-TSAO = target: T9, H-Tyr-Pro-NAP-TSAO
# T9 chain: YP
# [1] = target: T10, NH2-Val-HyPro(Bzl)-NAP-TSAO
# T10 chain: VP
# H-Lys-Pro-NAP-TSAO = target: T11, H-Lys-Pro-NAP-TSAO
# T11 chain: KP
# H-Val-D-Pro-NAP-TSAO = target: T12, H-Val-D-Pro-NAP-TSAO
# T12 chain: VP
# [2] = target: T13, H-Val-Pro-6-Aminoquinoline
# T13 chain: VP
# H-Val-Gly-NAP-TSAO = target: T14, H-Val-Gly-NAP-TSAO
# T14 chain: VG
# H-Asp-Pro-NAP-TSAO = target: T15, H-Asp-Pro-NAP-TSAO
# T15 chain: DP
# H-Val-Pro-Doxorubicin = target: T16, H-Val-Pro-Doxorubicin
# T16 chain: VP
# H-Val-4HyPro-NAP-TSAO = target: T17, H-Val-4HyPro-NAP-TSAO
# T17 chain: VP
# [3] = target: T18, H-Val-Ala-Val-Pro-NAP-TSAO
# T18 chain: VAVP
# [4] = target: T19, H-Lys-Pro-Asp-Pro-NAP-TSAO
# T19 chain: KPDP
# H-Val-Phe-NAP-TSAO = target: T20, H-Val-Phe-NAP-TSAO
# T20 chain: VF
# [5] = target: T21, Z-Val-Pro-Val-Pro-NAP-TSAO
# T21 chain: VPVP
# H-Val-Pro-Val-NHP-TSAO = target: T22, H-Val-Pro-Val-NHP-TSAO
# T22 chain: VPV
# [6] = target: T23, Me-NH-Val-Pro-Val-NHP-TSAO
# T23 chain: VPV
# [7] = target: T24, H-Val-Pro-Val-Pro-NAP-TSAO
# T24 chain: VPVP
protein,measurement,setting,value
B1,"Conversion %, 1 h",H-Val-Pro-NAP-TSAO,37%
same,"Conversion %, 4 h",H-Val-Pro-NAP-TSAO,62%
same,"Conversion %, 24 h",H-Val-Pro-NAP-TSAO,61%
same,"conversion of 50 µM CAM-405 to CAM-212 by 5.7 mUnits purified CD26, 30 min (HPLC)",H-Val-Pro-NAP-TSAO,fifty percent of the TSAO dipeptide derivative was converted to CAM-212 within 30 min
same,"conversion of 50 µM CAM-405 to CAM-212 by 5.7 mUnits purified CD26, first 10 min (HPLC)",H-Val-Pro-NAP-TSAO,"Within the first 10 min of the reaction, at least 20% of CAM-405 had been converted to CAM-212"
same,"hydrolysis of 50 µM CAM-405 by 5.7 mUnits purified CD26, 60 min (HPLC)",H-Val-Pro-NAP-TSAO,˜67% of CAM-405 was hydrolysed after 60 min
same,"Conversion %, 4 h",H-Gly-3.4Hypro-NAP-TSAO,0%
same,"Conversion %, 24 h",H-Gly-3.4Hypro-NAP-TSAO,0%
same,conversion of PI-2 to PI-1 by purified CD26,Val-Pro-PI 1,"Within 60 min, PI-2 was completely converted to PI-1 by purified CD26"
same,"Conversion %, 1 h",H-Gly-Pro-NAP-TSAO,5%
same,"Conversion %, 4 h",H-Gly-Pro-NAP-TSAO,20%
same,"Conversion %, 24 h",H-Gly-Pro-NAP-TSAO,58%
same,"Conversion %, 1 h",H-Val-Leu-NAP-TSAO,0%
same,"Conversion %, 4 h",H-Val-Leu-NAP-TSAO,0%
same,"Conversion %, 24 h",H-Val-Leu-NAP-TSAO,0%
same,"Conversion %, 4 h",H-Val-Pro-Val-NAP-TSAO,51%
same,"Conversion %, 24 h",H-Val-Pro-Val-NAP-TSAO,70%
same,"Conversion %, 1 h",H-Val-Ala-NAP-TSAO,0%
same,"Conversion %, 4 h",H-Val-Ala-NAP-TSAO,6.5%
same,"Conversion %, 24 h",H-Val-Ala-NAP-TSAO,35%
same,"% conversion, 1 h",Fmoc-Val-Pro-Doxorubicin,0%
same,"% conversion, 4 h",Fmoc-Val-Pro-Doxorubicin,0%
same,"% conversion, 24 h",Fmoc-Val-Pro-Doxorubicin,0%
same,"Conversion %, 1 h",H-Tyr-Pro-NAP-TSAO,43%
same,"Conversion %, 4 h",H-Tyr-Pro-NAP-TSAO,56%
same,"Conversion %, 24 h",H-Tyr-Pro-NAP-TSAO,79%
same,"Conversion %, 4 h",[1],0%
same,"Conversion %, 24 h",[1],0%
same,"Conversion %, 4 h",H-Lys-Pro-NAP-TSAO,85%
same,"Conversion %, 24 h",H-Lys-Pro-NAP-TSAO,99%
same,"Conversion %, 1 h",H-Val-D-Pro-NAP-TSAO,0%
same,"Conversion %, 4 h",H-Val-D-Pro-NAP-TSAO,1%
same,"Conversion %, 24 h",H-Val-D-Pro-NAP-TSAO,2%
same,"% conversion, 1 h",[2],99%
same,"% conversion, 4 h",[2],100%
same,"% conversion, 24 h",[2],100%
same,"Conversion %, 1 h",H-Val-Gly-NAP-TSAO,0%
same,"Conversion %, 4 h",H-Val-Gly-NAP-TSAO,0%
same,"Conversion %, 24 h",H-Val-Gly-NAP-TSAO,0%
same,"Conversion %, 4 h",H-Asp-Pro-NAP-TSAO,7.9%
same,"Conversion %, 24 h",H-Asp-Pro-NAP-TSAO,30%
same,"% conversion, 1 h",H-Val-Pro-Doxorubicin,78%
same,"% conversion, 4 h",H-Val-Pro-Doxorubicin,95%
same,"% conversion, 24 h",H-Val-Pro-Doxorubicin,97%
same,"Conversion %, 1 h",H-Val-4HyPro-NAP-TSAO,4.1%
same,"Conversion %, 4 h",H-Val-4HyPro-NAP-TSAO,18%
same,"Conversion %, 24 h",H-Val-4HyPro-NAP-TSAO,53%
same,"% conversion, 1 h",[3],12%
same,"% conversion, 4 h",[3],54%
same,"% conversion, 24 h",[3],70%
same,"% conversion, 1 h, to the dipeptide intermediate (a)",[4],88%
same,"% conversion, 1 h, to the parent compound (b)",[4],2.1%
same,"% conversion, 4 h, to the dipeptide intermediate (a)",[4],86%
same,"% conversion, 4 h, to the parent compound (b)",[4],6%
same,"% conversion, 24 h, to the dipeptide intermediate (a)",[4],74%
same,"% conversion, 24 h, to the parent compound (b)",[4],26%
same,"Conversion %, 1 h",H-Val-Phe-NAP-TSAO,0%
same,"Conversion %, 4 h",H-Val-Phe-NAP-TSAO,0%
same,"Conversion %, 24 h",H-Val-Phe-NAP-TSAO,0%
same,"% conversion, 1 h",[5],0%
same,"% conversion, 4 h",[5],0%
same,"% conversion, 24 h",[5],0%
same,"Conversion %, 1 h",H-Val-Pro-Val-NHP-TSAO,33%
same,"Conversion %, 4 h",H-Val-Pro-Val-NHP-TSAO,60%
same,"Conversion %, 1 h",[6],0%
same,"Conversion %, 4 h",[6],0%
same,"Conversion %, 24 h",[6],0%
same,"% conversion, 1 h",[7],43%
same,"% conversion, 4 h",[7],86%
same,"% conversion, 24 h",[7],88%
